Results from US20200102398A1 (Amgen, published 2020).

T1: soluble BCMA (sBCMA) (human, UniProt Q02223 1-54)
T1 construct: also called BCMA ECD; Biotinylated BCMA
T1 sequence: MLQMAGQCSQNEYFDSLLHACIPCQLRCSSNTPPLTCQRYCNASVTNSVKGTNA

B1: sBCMA-mAb3 (antibody, V domains shown)
VH: QEQLEESGGGLVKPGGTLTLTCKASGMDFSSYYYMCWVRQAPGKGLEWIACIFSDSGGHTAYASWAEGRFTISKTSSTTVTLQMTSLTVADTATYFCARDRRDVVYIRDLWGPGTLVTVSS
VL: ALVMTQTPSPVSAAVGGTVTISCQSSESVYNNNALAWYQQKPGQPPKLLIYGASSLASGVPSRFKGSGSGTQFTLTISDLECDDAATYYCAGYKRYNNDGHAFGGGTEVVVKG
notes: Rabbit monoclonal IgG; also called rabbit monoclonal anti-sBCMA-mAb3
B2: sBCMA-mAb1 (antibody, V domains shown)
VH: QSLEESGGDLVKPGAFLTLTCTASGFSFSSGYYICWVRQAPGKGLEWIACIYTGSSGSTDYASWAKGRFTISKTSSTTVTLQMTSLTAADTATYFCARDYGHSYWNLWGPGTLVTVSS
VL: DIVMTQTPASVEAAVGGTVTIKCQASEDISSRLAWYQQKPGQPPKLLIGAASTLASGVSSRFKGSRSGTEYTLTISDLECADAATYYCLGDYYVSSYGNAFGGGTEVVVKG
notes: Rabbit monoclonal IgG, used as purified recombinant antibody; also called rabbit monoclonal anti-sBCMA antibody sBCMA-mAb1; sBCMA-mAbl
B3: sBCMA-mAb2 (antibody, V domains shown)
VH: QSLEESGGDLVKPGASLTLTCTASGFSFSSSYWICWVRQAPGKGLEWIACIYAGSGDFTYYASWAKGRFTVSKTSSTTVTLQMTSLTAADTATYFCARDAATSYYSHYFTLWGPGTLVTVSS
VL: DVVMTQTPASVSEPVGGTVTIKCQASQSIYSGLAWYQQKPGQPPKLLIYDASDLASGVPSRFSGSGYGTEFTLTISGVQCEDAATYYCQVTHYESGVPLGGGTEVVVEG
notes: Rabbit monoclonal IgG; also called rabbit monoclonal anti-sBCMA antibody sBCMA-mAb2

How the values were obtained:
[1] = target: B2; assay: Octet: sBCMA-mAb3 on captured sBCMA-mAb1 without BCMA (sensor blocked with irrelevant IgG)
[2] = target: T1, soluble BCMA (sBCMA); assay: SPR (Biacore 3000, 25 C); mAb captured on goat anti-rabbit IgG Fc, sBCMA as analyte; 1:1 Langmuir with mass transfer
Description: Experiments were performed using a Biacore 3000 (GE Healthcare) at 25° C. The running buffer was HBS-P (10 mM HEPES, pH7.4, 150 mM NaCl, 0.05% Surfactant P-20)+0.1% BSA, and kinetics were performed at a high flowrate (100 μl/min). 10 mM Glycine, pH 1.7 was used for regeneration.
Surface preparation: A goat anti-rabbit IgG Fc (Prod. #111-005-046 from Jackson Research) was diluted 1/20 in NaAcetate, pH 5 and covalently coupled to the sample and reference Fc (Fc 1) of a CMS sensor chip using amine coupling. Individual mAbs were diluted in HBS-P+0.1% BSA and captured on either Fc 2, 3, or 4 at 0.3 μg/ml for kinetic analysis of binding to sBCMA.
Interaction Parameters: sBCMA (1.19 mg/ml stock) was injected as analyte at 600 nM, 300 nM, 150 nM, 75 nM, 37.5 nM, 18.8 nM, and 9.4 nM with the 75 nM concentrated run twice to gage reproducibility. The association rate was monitored for 2.5 minutes. The dissociation time was 20 minutes to determine more accurate kinetics for those mAbs with slower off-rates. The data was double background referenced in that both a reference Fc and a 0 nM analyte concentration were subtracted from the data. A 1:1 Langmuir binding model with mass transfer was used from the Biacore evaluation software.

Row | binding result [1] | Kd [2] [nM] | koff [2] [s⁻¹] | kon [2] [M⁻¹ s⁻¹] | Binder
1 | no binding (tested: not given) | 4.5 | 0.00405 | 901000 | B1
2 | – | 0.103 | 6.47e-05 | 630000 | B2
3 | – | 377 | 0.0185 | 49200 | B3
